This is an account of results in US20080227698A1, “OLIGOPEPTIDES FOR TREATMENT OF OSTEOPOROSIS AND OTHER BONE DISEASES AND METHODS THEREOF” (Washington University, priority 2005, published 2008).

In one assay the test system is Wnt signaling. As to the kind of experiment: Wnt signalling TCF/LEF-Luc assay in HEK293 cells (Wnt3A conditioned medium plus Dkk1). Conditions: Wnt3A conditioned medium plus Dkk1 protein at 10 nM. Type of assay: cell-based. The procedure: HEK293 cells were plated into six-well plates. For each well, […] of the TOP-[…] luciferase construct (Upstate Biotechnology) was cotransfected with 0.8 μg Mesd-expressing vector, 0.8 μg Mesd mutant-expressing vector, or empty vector. A β-galactosidase-expressing vector (Promega, Madison, Wis.) was included as an internal control for transfection efficiency. After 48 hours, cells were lysed and both luciferase and β-galactosidase activities were determined with enzyme assay kits (Promega). The luciferase activity was determined with a luminometer using the Dual Luciferase Assay system (Promega). Luciferase activity was normalized to the activity of the P-galactosidase.

Assay [1] concerns the target T1, LRP6 (Homo sapiens, UniProt O75581). As to the kind of experiment: ^125I-DKK1 binding to LRP6-transduced HT1080 cells. Conditions: ^125I-DKK1 5 nM, 3 hours at 4° C. Further details: plasmid pCS-Myc-hLRP6 containing the full-length human LRP6 cDNA; HA; expressed in transfected cells; host or cells: human HT1080 cells, stably transduced (pLNCX2 retroviral vector). The procedure:
Cells (2×10^5) were seeded into 12-well dishes 1 day prior to assay. Ligand-binding buffer (minimal Eagle's medium containing 0.6% BSA with a different concentration of radioligand, 0.6 ml/well) was added to cell monolayers, in the absence or the presence of 500 nM unlabeled RAP or 500 nM unlabeled Mesd, followed with incubation for 0-4 hours at 4° C. Thereafter, overlying buffer containing unbound ligand was removed, and cell monolayers were washed and lysed in low-SDS lysis buffer (62.5 mM Tris-HCl pH 6.8, 0.2% SDS, 10% v/glycerol) and counted.
RAP is a receptor antagonist for members of the LDLR family, and is able to inhibit the binding of most known ligands of the LDLR family members. […] In these experiments, Serum-free conditioned medium was harvested from HEK293 cells transiently transfected with cDNA for human Myc-DKK1 and allowed to bind to LRP6-transduced HT1080 cells (B,C) and control cells (A) in the absence (A,B) or presence (C) of 1 μM Mesd. Cell-surface-bound Myc-tagged DKK proteins were fixed and detected by immunofluorescence staining with anti-Myc antibody. […] Binding of 125I-DKK1 (5 nM) to LRP6-transduced HT1080 cells or the control cells was carried out for 3 hours at 4° C. in the absence (total) or presence of 500 nM RAP or 500 nM Mesd. […] LRP6-mediated 125I-Mesd (5 nM) degradation was carried out for 4 hours at 37° C. in the absence or presence of 500 nM RAP or 500 nM Mesd. Values are the means of triple determinations with the s.d. indicated by error bars. Bar, 10 μm.

Assay [2] deals with T1, LRP6. As to the kind of experiment: LRP6-mediated ^125I-DKK1 degradation in LRP6-transduced HT1080 cells. Further details: plasmid pCS-Myc-hLRP6 containing the full-length human LRP6 cDNA; HA; expressed in transfected cells; host or cells: human HT1080 cells, stably transduced (pLNCX2 retroviral vector). The conditions noted are these: 5 nM, 4 hours at 37° C. The class given is cell-based. The method, then:
Ligand degradation was performed using the methods as described (Li, Y., J. Biol. Chem. 275: 17187-17194, 2000). Briefly, 2×10^5 cells were seeded into 12-well dishes 1 day prior to assay. Pre-warmed assay buffer (minimal Eagle's medium containing 0.6% BSA with radioligand, 0.6 ml/well) was added to cell monolayers in the absence or the presence of unlabeled 500 nM RAP or 500 nM Mesd, followed by incubation for 4 hours at 37° C. Thereafter, the medium overlying the cell monolayers was removed and proteins were precipitated by addition of BSA to 10 mg/ml and trichloroacetic acid to 20%. […] After each time point, the plates were quickly placed on ice and the assay buffer was replaced with cold stop/strip solution. ^125I-anti-HA IgG that remained on the cell surface was stripped by incubation of cell monolayers with cold stop/strip solution for a total of 20 minutes (0.75 ml for 10 minutes, twice) and counted. Cell monolayers were then solubilized with low-SDS lysis buffer and counted. […] The fraction of internalized ^125I-anti-HA IgG after each time point was calculated and plotted.
RAP is a receptor antagonist for members of the LDLR family, and is able to inhibit the binding of most known ligands of the LDLR family members. […] Cell-surface-bound Myc-tagged DKK proteins were fixed and detected by immunofluorescence staining with anti-Myc antibody. […]

The next assay deals with LRP5 (Homo sapiens, UniProt O75197). As to the kind of experiment: ^125I-DKK1 binding to LRP5, competition by Mesd or oligopeptide (FIG. 10B). The procedure:
(§1) In order to investigate the binding of Mesd polypeptide and an Mesd oligopeptide to either LRP5 or LRP6, binding assays were performed using ^125I-Mesd or ^125I-DKK1 (FIG. 10).

The test system of another assay is ST-2 cells. As to the kind of experiment: Alkaline phosphatase activity in ST-2 cells infected with DKK1 retrovirus. Type of assay: cell-based. Conditions: increasing amounts of oligopeptide; non-transfected cells approximately 0.14 units, DKK1-infected cells about 0.02 units. The source says: Osteoblasts are cells which build bone. One marker for osteoblast activity is the cell surface enzyme alkaline phosphatase (AP). ST-2 cells are an osteoblast-derived cell line which provides an in vitro model system for studying osteoblast activity. […] Treatment of the transfected cells with increasing amounts of a Mesd oligopeptide having sequence

In assay [3] the target is T1, LRP6. Description: ^125I-Mesd binding to LRP6, competition by Mesd or oligopeptide (FIG. 10C). Conditions: compared with LRP5 (up to about 10-fold). On the set-up: plasmid pCS-Myc-hLRP6 containing the full-length human LRP6 cDNA; HA; expressed in transfected cells; host or cells: human HT1080 cells, stably transduced (pLNCX2 retroviral vector). The procedure:
as §1

The target of assay [4] is T2, LRP6 on LRP6-transduced HT1080 cells (HA-tagged) (UniProt O75581 20-1613, limits assumed).
T2 construct: whole, on cells; also called mature LRP6; cell surface LRP6
T2 sequence (O75581 20-1613 limits assumed): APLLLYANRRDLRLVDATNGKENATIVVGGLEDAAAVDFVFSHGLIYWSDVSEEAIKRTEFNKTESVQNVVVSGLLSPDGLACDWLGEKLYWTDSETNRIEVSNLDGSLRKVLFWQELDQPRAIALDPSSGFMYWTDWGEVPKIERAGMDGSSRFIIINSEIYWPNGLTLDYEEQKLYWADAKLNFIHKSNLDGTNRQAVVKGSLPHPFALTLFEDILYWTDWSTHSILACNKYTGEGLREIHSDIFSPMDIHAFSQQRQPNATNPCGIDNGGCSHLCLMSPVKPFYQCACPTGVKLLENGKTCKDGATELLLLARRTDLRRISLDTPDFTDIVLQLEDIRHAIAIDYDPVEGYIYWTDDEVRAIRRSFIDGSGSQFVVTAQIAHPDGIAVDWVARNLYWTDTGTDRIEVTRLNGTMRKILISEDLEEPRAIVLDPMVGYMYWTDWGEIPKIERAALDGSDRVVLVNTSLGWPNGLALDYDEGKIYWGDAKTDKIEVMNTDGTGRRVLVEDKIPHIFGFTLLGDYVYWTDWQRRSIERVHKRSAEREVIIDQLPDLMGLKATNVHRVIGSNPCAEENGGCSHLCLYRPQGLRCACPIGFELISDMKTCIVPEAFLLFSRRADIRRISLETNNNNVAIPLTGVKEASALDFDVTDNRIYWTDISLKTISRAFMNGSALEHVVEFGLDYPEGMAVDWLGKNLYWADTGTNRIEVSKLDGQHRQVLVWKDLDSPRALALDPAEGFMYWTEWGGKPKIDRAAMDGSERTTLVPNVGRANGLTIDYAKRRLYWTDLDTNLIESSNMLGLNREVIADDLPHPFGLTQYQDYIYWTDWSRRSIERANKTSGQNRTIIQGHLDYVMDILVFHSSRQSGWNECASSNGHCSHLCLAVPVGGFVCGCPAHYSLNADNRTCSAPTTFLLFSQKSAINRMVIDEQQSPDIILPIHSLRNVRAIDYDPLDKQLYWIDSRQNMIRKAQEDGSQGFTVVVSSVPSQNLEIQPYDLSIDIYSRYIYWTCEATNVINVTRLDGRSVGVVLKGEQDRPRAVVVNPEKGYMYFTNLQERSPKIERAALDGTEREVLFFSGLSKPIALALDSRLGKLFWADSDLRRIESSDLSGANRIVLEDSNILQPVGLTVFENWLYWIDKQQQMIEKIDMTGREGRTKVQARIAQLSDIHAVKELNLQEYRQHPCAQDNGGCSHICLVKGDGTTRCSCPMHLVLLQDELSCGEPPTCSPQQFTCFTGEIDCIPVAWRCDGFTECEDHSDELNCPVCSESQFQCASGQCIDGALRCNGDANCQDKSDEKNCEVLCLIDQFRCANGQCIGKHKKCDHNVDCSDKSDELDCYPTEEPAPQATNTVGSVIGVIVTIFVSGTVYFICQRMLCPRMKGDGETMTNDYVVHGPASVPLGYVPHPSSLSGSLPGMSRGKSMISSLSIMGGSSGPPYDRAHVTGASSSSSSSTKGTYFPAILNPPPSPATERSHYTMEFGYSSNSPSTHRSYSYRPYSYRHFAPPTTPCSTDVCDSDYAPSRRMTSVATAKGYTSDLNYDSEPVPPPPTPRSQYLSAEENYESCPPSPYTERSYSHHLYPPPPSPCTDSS
Description: binding of truncated Mesd mutants to cell surface LRP6 (FIG. 3B).

In assay [5] the target is T2, LRP6 on LRP6-transduced HT1080 cells …. As to the kind of experiment: competition against 125I-DKK1 for LRP6 (FIG. 10D).
Assay [6] addresses T3, human Myc-tagged LRP5 on transiently transfected HEK293 cells (human, UniProt O75197 32-1615).
T3 construct: whole, on cells; also called mature LRP5; pcDNA3.1C-Myc-hLRP5
As to the kind of experiment: competition against 125I-Mesd for LRP5 (FIG. 10A).

Assay [7] addresses T2, LRP6 on LRP6-transduced HT1080 cells …. Description: Scatchard analysis of 125I-Mesd saturation binding to LRP6-transduced HT1080 cells, 3 h at 4 C. The text has this:
(C) Scatchard plots of data in B. All values are the average of triple determinations with the s.d. indicated by error bars.

In assay [8] the target is T4, human VLDLR on stably transfected LRP-null CHO cells (human, UniProt P98155 28-873).
T4 construct: whole, on cells
As to the kind of experiment: 125I-Mesd binding to stably transfected LRP-null CHO cells, 4 h at 4 C, with or without 500 nM Mesd.

Assay [9] addresses T5, human apoER2 on stably transfected LRP-null CHO cells (human, UniProt Q14114 33-963).
T5 construct: whole, on cells
T5 sequence (looked up): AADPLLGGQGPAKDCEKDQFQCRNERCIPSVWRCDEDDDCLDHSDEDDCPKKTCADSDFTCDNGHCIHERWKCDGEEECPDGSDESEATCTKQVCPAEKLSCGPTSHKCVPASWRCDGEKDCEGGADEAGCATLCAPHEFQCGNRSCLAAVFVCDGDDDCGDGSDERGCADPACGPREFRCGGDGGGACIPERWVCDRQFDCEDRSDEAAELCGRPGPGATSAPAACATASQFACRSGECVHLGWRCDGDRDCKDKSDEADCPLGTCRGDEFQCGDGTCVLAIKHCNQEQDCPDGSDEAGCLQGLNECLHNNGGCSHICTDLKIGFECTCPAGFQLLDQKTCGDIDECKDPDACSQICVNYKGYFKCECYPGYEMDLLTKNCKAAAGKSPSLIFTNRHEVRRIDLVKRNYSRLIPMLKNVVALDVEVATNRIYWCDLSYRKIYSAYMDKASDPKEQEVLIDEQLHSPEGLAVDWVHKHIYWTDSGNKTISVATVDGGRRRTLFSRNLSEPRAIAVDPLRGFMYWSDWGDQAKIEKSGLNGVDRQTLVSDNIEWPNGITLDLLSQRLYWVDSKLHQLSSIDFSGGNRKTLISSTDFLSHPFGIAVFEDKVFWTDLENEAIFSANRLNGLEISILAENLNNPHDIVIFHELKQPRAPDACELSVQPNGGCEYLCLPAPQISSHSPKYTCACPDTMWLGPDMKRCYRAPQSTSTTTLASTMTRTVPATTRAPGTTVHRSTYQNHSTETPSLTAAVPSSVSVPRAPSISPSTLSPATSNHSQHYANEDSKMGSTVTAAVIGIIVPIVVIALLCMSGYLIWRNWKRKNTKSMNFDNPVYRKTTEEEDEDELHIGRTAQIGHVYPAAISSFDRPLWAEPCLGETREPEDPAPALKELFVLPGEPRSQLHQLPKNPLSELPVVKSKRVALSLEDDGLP
Described as above.

T1 sequence (O75581 20-1613): as the sequence (O75581 20-1613 limits assumed) above
T3 sequence (O75197 32-1615): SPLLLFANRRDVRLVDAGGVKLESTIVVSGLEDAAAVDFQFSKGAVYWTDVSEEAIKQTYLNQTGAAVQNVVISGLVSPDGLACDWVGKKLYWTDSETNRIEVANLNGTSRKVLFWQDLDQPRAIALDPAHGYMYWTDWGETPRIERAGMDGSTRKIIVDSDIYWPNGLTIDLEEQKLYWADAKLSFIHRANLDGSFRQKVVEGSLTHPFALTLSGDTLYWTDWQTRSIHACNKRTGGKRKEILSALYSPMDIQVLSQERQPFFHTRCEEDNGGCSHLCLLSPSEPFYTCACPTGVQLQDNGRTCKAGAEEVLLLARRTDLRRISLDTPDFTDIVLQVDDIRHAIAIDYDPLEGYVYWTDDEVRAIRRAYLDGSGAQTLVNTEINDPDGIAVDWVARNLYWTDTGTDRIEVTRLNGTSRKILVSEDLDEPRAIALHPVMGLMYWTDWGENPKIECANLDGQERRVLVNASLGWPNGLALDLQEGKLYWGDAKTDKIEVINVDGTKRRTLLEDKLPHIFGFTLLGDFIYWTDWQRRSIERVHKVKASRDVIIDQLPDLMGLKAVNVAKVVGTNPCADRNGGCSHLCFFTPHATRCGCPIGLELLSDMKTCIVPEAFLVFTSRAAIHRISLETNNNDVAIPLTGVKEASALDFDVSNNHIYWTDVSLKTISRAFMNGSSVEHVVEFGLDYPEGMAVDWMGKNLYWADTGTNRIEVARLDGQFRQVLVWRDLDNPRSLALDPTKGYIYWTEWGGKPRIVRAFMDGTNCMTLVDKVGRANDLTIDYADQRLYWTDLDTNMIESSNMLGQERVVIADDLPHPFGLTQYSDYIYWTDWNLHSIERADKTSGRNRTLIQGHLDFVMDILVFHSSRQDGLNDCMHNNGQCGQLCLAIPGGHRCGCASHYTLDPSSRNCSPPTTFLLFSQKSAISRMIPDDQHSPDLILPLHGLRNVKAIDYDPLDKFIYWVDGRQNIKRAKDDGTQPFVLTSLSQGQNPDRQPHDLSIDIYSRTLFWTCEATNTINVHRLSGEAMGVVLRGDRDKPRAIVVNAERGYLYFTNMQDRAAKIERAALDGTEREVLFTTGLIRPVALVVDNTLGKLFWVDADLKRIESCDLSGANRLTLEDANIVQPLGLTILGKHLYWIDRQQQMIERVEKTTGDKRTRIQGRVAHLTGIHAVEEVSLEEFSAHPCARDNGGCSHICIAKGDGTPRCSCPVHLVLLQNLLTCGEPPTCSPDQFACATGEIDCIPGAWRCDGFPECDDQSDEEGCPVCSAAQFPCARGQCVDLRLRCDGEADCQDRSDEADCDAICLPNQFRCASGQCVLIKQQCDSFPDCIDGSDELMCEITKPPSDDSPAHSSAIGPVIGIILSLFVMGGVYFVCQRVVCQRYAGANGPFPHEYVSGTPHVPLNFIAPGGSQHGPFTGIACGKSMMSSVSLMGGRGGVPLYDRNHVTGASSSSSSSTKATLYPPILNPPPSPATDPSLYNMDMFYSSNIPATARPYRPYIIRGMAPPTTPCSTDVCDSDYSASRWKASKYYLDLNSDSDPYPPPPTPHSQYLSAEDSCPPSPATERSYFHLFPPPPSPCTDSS
Chain of LRP5 (O75197 32-1615): as above

Consider “DKK1: human DKK1 protein, LRP6-specific ligand and antagonist; recombinant (R&D Systems) or Myc-tagged in conditioned medium”, for which the “Effect of Dkk1 on Wnt signaling (luciferase activity)” value in the assay with Wnt signaling is “inhibits Wnt signaling”. In addition, in the assay with LRP6 [1], the “^125I-DKK1 binding in LRP6-expressing HT1080 cells versus control cells” value was “significantly higher levels”. Further, the “^125I-DKK1 degradation in LRP6-expressing HT1080 cells versus control cells” value with LRP6 [2] is “significantly higher levels”.
On to “KGGGSKEKNKTKPEKAKKKEGDPKPRASKEDNRAGSR [SEQ ID NO: 20]”, for which the “Reduction in binding of ^125I-DKK1 to LRP5” value with LRP5 was “small but significant reduction”. In addition, in the assay on ST-2 cells, the “Alkaline phosphatase (AP) activity” value is listed as “increasing levels of AP activity”. Besides, the “Reduction of binding of ^125I-Mesd to LRP6” value with LRP6 [3] is reported as “even greater reduction”.

B1: Mesd(12-155) (other, not shown: small tags and cut ends)
chain: RKKKDIRDYNDADMARLLEQWEKDDDIEEGDLPEHKRPSAPIDFSKLDPGKPESILKMTKKGKTLMMFVTVSGNPTEKETEEITSLWQGSLFNANYDVQRFIVGSDRAIFMLRDGSYAWEIKDFLVSQDRCAEVTLEGQMYPGK
modifications: 125I-iodinated when used as radioligand
notes: also called truncated Mesd mutant lacking both the N-terminal and C-terminal regions
For B1, the binding result in assay [4] was “no binding”.

B2: recombinant mouse Mesd protein (wild type) (other, not shown: small tags and cut ends)
chain: ADTPGEATPPPRKKKDIRDYNDADMARLLEQWEKDDDIEEGDLPEHKRPSAPIDFSKLDPGKPESILKMTKKGKTLMMFVTVSGNPTEKETEEITSLWQGSLFNANYDVQRFIVGSDRAIFMLRDGSYAWEIKDFLVSQDRCAEVTLEGQMYPGKGGGSKEKNKTKPEKAKKKEGDRKPRASKEDNRAGSRREDL
modifications: 125I-iodinated (IODO-GEN) when used as radioligand
notes: Made in E. coli from full-length mouse Mesd cDNA; also called wild type Mesd
Regarding B2, the “fold reduction of ^125I-DKK1 binding” value in assay [5] is greater than 2 fold. The “fold reduction of ^125I-Mesd binding” value in [6] was roughly 10 fold. The molecule also showed a Kd in assay [7] of roughly 3.3 nM. Besides, the binding result in [8] and in [9] was “no binding (tested: 5 nM 125I-Mesd)” in each case.
